We go through 22 sequences from the supplement of paper PMC9170038.

The test system of data set [1] is K4 kissing-loop RNA reporter. As to the kind of experiment: apparent KD of K4 kissing-loop reporter; higher = weaker reporter binding. The conditions noted are these: Eterna round: R107. The protocol: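 RNA-MaP round R107: designed RNA switches with theophylline, tryptophan, arginine or FMN aptamers are transcribed on-chip within common flanks. They are titrated with a labelled K4 kissing-loop RNA reporter in RNA-MaP buffer (100 mM Tris pH 7.5, 80 mM KCl, 4 mM MgCl2), without ligand or with the indicated ligand. Median apparent KD per design.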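 Note: bound reporter read as fluorescence of individual clusters on recovered sequencing chips by microscopy, with normalized cluster intensities fitted with a binding model.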

In another data set the test system is MS2 coat protein. In words: apparent KD of MS2 coat protein; designed switch direction (-1 OFF switch, 1 ON switch): -1; higher = weaker reporter binding. An outline of the steps: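 On Illumina chips, designed RNA switches with common flanks were made by stalled E. coli RNA polymerase. Titrations with SNAP-549-labelled MS2 coat protein, doubling from 0.7 or 1.5 nM to 3 µM, were done with no input, with 200 uM small-molecule ligand, or with an oligonucleotide input. Apparent KD is the median per design over clusters, from curve fits of normalised cluster fluorescence.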

[2] abbreviates: input ligand: theophylline 20 uM.
Where [3] appears, read: input ligand: tryptophan 2.4 mM.
[4] abbreviates: Eterna round: R95, input ligand: FMN 200 uM.
Where [5] appears, read: Eterna round: R95, input ligand: microRNA oligo, concentration not stated.
[6] abbreviates: Eterna round: R95, input ligand: none.
Setting [7] is: input ligand: microRNA oligo, concentration not stated.

Regarding “CUUUAUCAACCAGAUACCAGCGGUUCUCUAGUUGGCUUCCGUAGUGAUGUUGCGUGGUCCCGCCCUUGGCAGCUGGCCAUGACUA [theeternabot_sameState_KL_Theo_B_5]”, the “apparent KD of K4 kissing-loop reporter” value in data set [1] (input ligand: FMN 200 uM) amounted to 1060 nM; in data set [1] (input ligand: arginine 13.2 mM) it was 684 nM; in data set [1] (input ligand: none), 1170 nM; in data set [1] (setting [2]) it was 798 nM; in data set [1] (setting [3]), 993 nM.
For “UUAUAUUUCAGUGAUGUUGAAAAUAUAACAGAGGAUAUGCGUUUAAGCAGAAGGCUGAAAUACUAUACUUUAAUCUAUUAAAUUU [JR_Nu_SSFMNA_Sub027]” the same measures were 195 nM, 356 nM, 350 nM, 353 nM and 323 nM.
In the case of “AAGAAACAUGAGGAUCACCCAUGUGAGGAUAUGACUAAGAAAAGAAAAGAAAGAAGAAUCAGAAGGCACAAAGG [salish99-ex1_r3_053] (puzzle: Exclusion 1)”, the “apparent KD of MS2 coat protein” value with MS2 coat protein (setting [4]) turned out to be 29.7 nM; in the data set with MS2 coat protein (setting [5]), 43 nM; in the data set with MS2 coat protein (setting [6]), 49.3 nM.
Turning to “UGCGAAGAGUGAGGAUAUGUGCGACAAAGUUGCACAGAAGGCACAUGAGGAUCACCCAUGUAAGCUAGGUCGAAAGACCUAGCG [Omei Exc(NG)1 Av5] (Eterna round: R96, puzzle: Exclusion NG 1)”, the figures for the “apparent KD of MS2 coat protein” value in the data set with MS2 coat protein (input ligand: FMN 200 uM), in the data set with MS2 coat protein (setting [7]) and with MS2 coat protein (input ligand: none) were 106 nM, 40.6 nM and 43.4 nM, respectively.
In the case of “AUCAGCUCGUCAGGAUAUACAUGAGGAUCACCCAUGUGAUCAAUAGCAGCUUCGGCUGCAUUAAUGUAGAAGGGACGAGCUGAU [ENG2/5-B3] (Eterna round: R96, puzzle: Exclusion NG 2)”, the entries for the “apparent KD of MS2 coat protein” value in the data set with MS2 coat protein (input ligand: FMN 200 uM), with MS2 coat protein (setting [7]) and with MS2 coat protein (input ligand: none) were 175 nM, 75 nM and 407 nM, respectively.
With “CUGGUCCGAGGAUAUAUGAUGUGAAACAUGAGGAUCACCCAUGUAAUAUUAUGGAUGAAAAUAGAAGGCGGACUAG [Mat - Exclusion 5 - JL mod - D37] (puzzle: Exclusion 5)”, the “apparent KD of MS2 coat protein” value in the data set with MS2 coat protein (setting [4]) worked out at 52.6 nM; with MS2 coat protein (setting [5]), 66.1 nM; in the data set on MS2 coat protein (setting [6]), 62.7 nM.
With “AUAACAAGCUUUUUGUUCGUAGAACAUGACGCUCGAGUCACAUGAGGAUCACCCAUGUCAUCCAGAUUGAUAGUUGA [JR_SV3TOV2_Sub059] (puzzle: Sensor v3, turn-off variant 2)”, the figures for the “apparent KD of MS2 coat protein” value with MS2 coat protein (setting [4]), with MS2 coat protein (setting [5]) and in the data set with MS2 coat protein (setting [6]) were 35.5 nM, 47.3 nM and 44.3 nM, respectively.
As for “AAGGAUAGAGGAUAUACAUAGAUACAGAUUCAUGUAGUCCUACAUGAGGAUCACCCAUGUAGAAGGCUAUCCUA [Fiskers Ex 2 - 12] (puzzle: Exclusion 2)”, in the data set on MS2 coat protein (setting [5]), the “apparent KD of MS2 coat protein” value came to 15.7 nM.
Still for that read-out and setting: for “GAGAUGUGAGGAUAUCUGGACCGUGGAAGAGCCACGGUCCGAGAGAAGGCACAUGAGGAUCACCCAUGUGAUGA [Inerusce] (puzzle: Exclusion 4)” the value was 42.8 nM.
Regarding “ACACUGCGAGGAUAUACAUGAGGAUCACCCAUGUAUCGGUAGUCAAGGUUAAUUUAAGGUAGAAGGCGCGUAUU [JR_Ex3_Sub007] (Eterna round: R97, puzzle: Exclusion 3)”, the results for the “apparent KD of MS2 coat protein” value in the data set with MS2 coat protein (input ligand: FMN 200 uM) and in the data set on MS2 coat protein (input ligand: none) were 26.4 nM and 24 nM, respectively.
On to “AACGUCUAGGUAGGAUAUCCACCAACAGGUGGAAGGAUAUGGAAACAGAAGGUUCGCCAACAGGCGGAGAAGGACCUACGCGUA [pwkr exNG2 2xF7 2xFMN.25] (Eterna round: R96, puzzle: Exclusion NG 2)”, for which the results for the “apparent KD of MS2 coat protein” value with MS2 coat protein (input ligand: FMN 200 uM), with MS2 coat protein (setting [7]) and in the data set with MS2 coat protein (input ligand: none) were 50.4 nM, 162 nM and 387 nM, respectively.
With “AGCUGUGGCCGAGGAUAUCCACAUGAGGAUCACCCAUGUCGAUACGCCGUUAAAGGCGAUAUAAGGGAGAAGGCGGUCUCAGCA [Eli eng2 - 052] (Eterna round: R96, puzzle: Exclusion NG 2)”, the results for the “apparent KD of MS2 coat protein” value in the data set with MS2 coat protein (input ligand: FMN 200 uM), in the data set with MS2 coat protein (setting [7]) and in the data set with MS2 coat protein (input ligand: none) were 7.35 nM, 6.69 nM and 10.2 nM, respectively.
As for “AUUUUGUCAGGAUAUUAGUAGUAAAUAAAUAAAAUUAUUACUGAGAAGGGACAUGAGGAUCACCCAUGUGUCUU [Salish 062 v9] (Eterna round: R97, puzzle: Exclusion 4)”, the “apparent KD of MS2 coat protein” value in the data set on MS2 coat protein (input ligand: FMN 200 uM) stood at 39.5 nM; in the data set on MS2 coat protein (input ligand: none) it was 18.3 nM.
The matching figures for “UACAUACGUCGAUCGAAAGACAUGAGGAUCACCCAUGUACGAUGUCAACGUCAAAUCCAAGUAUUUUGCUCUCGUCA [Eternabot (L2) Solution 32] (Eterna round: R97, puzzle: Sensor, turn-off variant 1)”: 15.6 nM and 16.1 nM.
As for “CCGGAAGUACAGGAUAUCGUAACGGAAACGUUACGAGAAGGGUAUACAUGAGGAUCACCCAUGUGUCCUACCGG [Mat - Exclusion 6 - Eli Mod - D93] (puzzle: Exclusion 6)”, the “apparent KD of MS2 coat protein” value in the data set on MS2 coat protein (setting [5]) worked out at 22.6 nM.
Same read-out and setting: for “GUUAAACAUGAGGAUCACCCAUGUAAGGAUAUGCUGCGGUCGCGCUGACGUGACUGCAGCAGAAGGUACAAAUG [Mat - Mod of JL D57] (puzzle: Exclusion 1)” the value was 76.4 nM.
“AGAUCUAGGACAGGAUAUACGGAUGUCUUCAUCGAAGAUGAAGACAUCACAUGAGGAUCACCCAUGUAGAAGGGUCCUAGAUCA [Omei Exc(NG) 2A] (Eterna round: R96, puzzle: Exclusion NG 2)”: the “apparent KD of MS2 coat protein” value with MS2 coat protein (input ligand: FMN 200 uM) was found to be 12.3 nM; with MS2 coat protein (setting [7]), 10.9 nM; in the data set with MS2 coat protein (input ligand: none), 14.3 nM.
As to “AAGAAACAUGAGGAUCACCCAUGUGAGGAUAUGAUCAAGAAAAGAAAAGAAAGAAGAGUCAGAAGGCACAAAGG [salish99-ex1_r3_065] (puzzle: Exclusion 1)”, the “apparent KD of MS2 coat protein” value in the data set with MS2 coat protein (setting [4]) came out at 282 nM; in the data set with MS2 coat protein (setting [5]) it was 291 nM; in the data set with MS2 coat protein (setting [6]), 418 nM.
In the case of “CCGGUUGGCGCAGGAUAUACAUGAGGAUCACCCAUGUUCAUGAGCAUCAGCCAUGAGUUUUUGUUGUAGAAGGGUGGCCCGGCC (Eterna round: R96, puzzle: Exclusion NG 2)”, the figures for the “apparent KD of MS2 coat protein” value in the data set on MS2 coat protein (input ligand: FMN 200 uM), in the data set with MS2 coat protein (setting [7]) and in the data set with MS2 coat protein (input ligand: none) were 19.6 nM, 15.6 nM and 23.5 nM, respectively.
For “GCAGCAACUCUAAUCAACUAAACAUGAGGAUCACCCAUGUCUCAGGAUAUGGUCUGGAUUACAGGCCAGAAGGGAGAAAGCUGC [Eli exng3 - 043] (Eterna round: R96, puzzle: Exclusion NG 3)” the same measures were 16.2 nM, 11.2 nM and 12.3 nM.
As for “AAGUCGAGCGUGAGGAUAUCGUUCGAACGACCGAACGAGAAGGCACAUGAGGAUCACCCAUGUGAUUCAGUUCA [Brourd's EX4 #46] (Eterna round: R97, puzzle: Brourd's mod of Exclusion 4)”, the results for the “apparent KD of MS2 coat protein” value in the data set with MS2 coat protein (input ligand: FMN 200 uM) and with MS2 coat protein (input ligand: none) were 39.8 nM and 17.8 nM, respectively.
For “GCUGCGCGAGGAUAUGCGGUUCGCGCUGUGGCCCGUGGCGGACAUGAGGAUCACCCAUGUAGAAGGCGUGCGGG [Apr-15 SS2-58] (puzzle: Exclusion 2)”, the “apparent KD of MS2 coat protein” value with MS2 coat protein (setting [5]) came out at 10.3 nM.
